Measurements published in patent US20160272683A1 (Novo Nordisk, published 2016).
Numbered stars: 1 amine (or outer) side, 2 acyl side, 3 side chain; on linkers, the order of the positions; unused ones are H or OH. Ends that are not written are not given here. * marks the point of attachment. C20 diacid = O=C(O)CCCCCCCCCCCCCCCCCCC(=O)*; C18 diacid = O=C(O)CCCCCCCCCCCCCCCCC(=O)*; γGlu = O=C(O)[C@H](CCC(=O)[*:2])N[*:1]

T1: human calcitonin receptor (human, UniProt P30988 25-474)
T1 construct: whole, on cells; also called hCT-R; hCTR
T1 sequence (looked up): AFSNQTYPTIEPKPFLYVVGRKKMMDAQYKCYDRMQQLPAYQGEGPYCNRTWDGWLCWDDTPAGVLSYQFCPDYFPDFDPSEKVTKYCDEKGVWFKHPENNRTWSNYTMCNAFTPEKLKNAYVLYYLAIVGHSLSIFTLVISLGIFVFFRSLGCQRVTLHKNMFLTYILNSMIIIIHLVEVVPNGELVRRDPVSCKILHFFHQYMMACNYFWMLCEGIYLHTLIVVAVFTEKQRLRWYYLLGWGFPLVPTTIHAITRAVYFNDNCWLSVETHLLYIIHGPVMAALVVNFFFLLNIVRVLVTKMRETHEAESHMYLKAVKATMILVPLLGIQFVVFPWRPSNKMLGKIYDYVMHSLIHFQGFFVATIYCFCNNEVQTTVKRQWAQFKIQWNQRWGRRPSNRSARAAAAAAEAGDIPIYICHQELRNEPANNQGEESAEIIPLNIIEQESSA

T2: human amylin receptor (human calcitonin receptor + human RAMP3) (human) (UniProt P30988)
T2 sequence (looked up) 1: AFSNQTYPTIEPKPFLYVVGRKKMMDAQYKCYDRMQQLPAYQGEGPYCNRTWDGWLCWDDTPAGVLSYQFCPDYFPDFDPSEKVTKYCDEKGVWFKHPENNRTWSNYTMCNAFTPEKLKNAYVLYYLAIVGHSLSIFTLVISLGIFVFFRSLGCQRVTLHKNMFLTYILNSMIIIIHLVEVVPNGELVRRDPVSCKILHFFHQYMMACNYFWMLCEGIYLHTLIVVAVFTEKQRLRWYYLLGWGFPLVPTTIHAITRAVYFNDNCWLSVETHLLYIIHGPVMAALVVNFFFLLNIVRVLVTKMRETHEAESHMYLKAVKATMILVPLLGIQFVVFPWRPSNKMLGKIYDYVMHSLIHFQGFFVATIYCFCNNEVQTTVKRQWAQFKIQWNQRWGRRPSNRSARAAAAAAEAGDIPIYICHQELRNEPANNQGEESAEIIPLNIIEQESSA
T2 sequence (looked up) 2: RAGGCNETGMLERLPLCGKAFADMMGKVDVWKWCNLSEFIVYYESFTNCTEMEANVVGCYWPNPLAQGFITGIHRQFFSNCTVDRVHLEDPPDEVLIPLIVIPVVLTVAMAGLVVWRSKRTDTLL


Biological target: T1, human calcitonin receptor
Test: whole-cell competition vs 125I-human calcitonin (Assay VIIa)
Description: The binding assay was performed using a BHK tk'ts 13 cell line was stably transfected with the human calcitonin receptor, and a CRE-responsive luciferase reporter gene.
The day before the assay the cells were Seeded into Poly-D-Lysin coated 384W Opaque White, BD BioCoat plates (10000 cells/well) and Incubated overnight at 37° C., 5% CO2, 95% humidity. […] The morning after, the plates were washed three times in HBSS (4° C.), and lyzed in Lysis buffer (0.1 M NaOH), 1% SDS. Scintillation cocktail (MicroScint40®) was added and the plates were shaken at 500 rpm for a short period. The plate was incubated at room temperature in the dark for 1 hour and Read on a TopCounter™ (Packard). The IC₅₀ was calculated using (one site binding competition analysis) GraphPad Prism5 as a measure of receptor affinity.

| IC50 [nM] | Binder |
| --- | --- |
| 0.431 | EASELSTAALGRLSAELHELATLPRTETGPESP-NH2 (also called Ex. #1) [mimylin] |
| 0.481 | EASELSTAALGRLSAELHELATLPRTETGSGSP-NH2 (backbone without side chain; also called Ex. #22bb; 22bb) |

Biological target: T2, human amylin receptor (human calcitonin receptor + human RAMP3) (human)
Test: whole-cell competition vs 125I-rat amylin (Assay Va)

| Binder | IC50 [nM] |
| --- | --- |
| ASELTTAVLGRLEAELHELTTLPRTETGTGTP-NH2 [[des1, 6T, 9V, 14E, 21T, 30T, 31G, 32T]mimylin] | 71.4 |
| ASELTTAVLGRLSAELHELATLPRTETGTGTP-NH2 [[des1, 6T, 9V, 30T, 31G, 32T]mimylin] | 20.2 |
| {C18 diacid}-EASELSTAALGRLSAELHELATLPRTETGPESP-OH [[N-terminal(C18 diacid), C-terminal(-)]mimylin] | 298 |
| {C20 diacid-γGlu}-LSQLSTLVLGRLSQRLHRLQTYPRTQTGSQTY-NH2 (SMILES CC(C)C[C@H](NC(=O)CC[C@H](NC(=O)CCCCCCCCCCCCCCCCCCC(=O)O)C(=O)O)C(=O)N[C@@H](CO)C(=O)N[C@@H](CCC(N)=O)C(=O)N[C@@H](CC(C)C)C(=O)N[C@@H](CO)C(=O)N[C@H](C(=O)N[C@@H](CC(C)C)C(=O)N[C@H](C(=O)N[C@@H](CC(C)C)C(=O)NCC(=O)N[C@@H](CCCNC(=N)N)C(=O)N[C@@H](CC(C)C)C(=O)N[C@@H](CO)C(=O)N[C@@H](CCC(N)=O)C(=O)N[C@@H](CCCNC(=N)N)C(=O)N[C@@H](CC(C)C)C(=O)N[C@@H](Cc1c[nH]cn1)C(=O)N[C@@H](CCCNC(=N)N)C(=O)N[C@@H](CC(C)C)C(=O)N[C@@H](CCC(N)=O)C(=O)N[C@H](C(=O)N[C@@H](Cc1ccc(O)cc1)C(=O)N1CCC[C@H]1C(=O)N[C@@H](CCCNC(=N)N)C(=O)N[C@H](C(=O)N[C@@H](CCC(N)=O)C(=O)N[C@H](C(=O)NCC(=O)N[C@@H](CO)C(=O)N[C@@H](CCC(N)=O)C(=O)N[C@H](C(=O)N[C@@H](Cc1ccc(O)cc1)C(N)=O)[C@@H](C)O)[C@@H](C)O)[C@@H](C)O)[C@@H](C)O)C(C)C)[C@@H](C)O) | 10.7 |
| {C20 diacid-γGlu}-LSGLSTAVLGRLSAELHELSTYPRTETGSGTY-NH2 (SMILES CC(C)C[C@H](NC(=O)CC[C@H](NC(=O)CCCCCCCCCCCCCCCCCCC(=O)O)C(=O)O)C(=O)N[C@@H](CO)C(=O)NCC(=O)N[C@@H](CC(C)C)C(=O)N[C@@H](CO)C(=O)N[C@H](C(=O)N[C@@H](C)C(=O)N[C@H](C(=O)N[C@@H](CC(C)C)C(=O)NCC(=O)N[C@@H](CCCNC(=N)N)C(=O)N[C@@H](CC(C)C)C(=O)N[C@@H](CO)C(=O)N[C@@H](C)C(=O)N[C@@H](CCC(=O)O)C(=O)N[C@@H](CC(C)C)C(=O)N[C@@H](Cc1c[nH]cn1)C(=O)N[C@@H](CCC(=O)O)C(=O)N[C@@H](CC(C)C)C(=O)N[C@@H](CO)C(=O)N[C@H](C(=O)N[C@@H](Cc1ccc(O)cc1)C(=O)N1CCC[C@H]1C(=O)N[C@@H](CCCNC(=N)N)C(=O)N[C@H](C(=O)N[C@@H](CCC(=O)O)C(=O)N[C@H](C(=O)NCC(=O)N[C@@H](CO)C(=O)NCC(=O)N[C@H](C(=O)N[C@@H](Cc1ccc(O)cc1)C(N)=O)[C@@H](C)O)[C@@H](C)O)[C@@H](C)O)[C@@H](C)O)C(C)C)[C@@H](C)O) [[N-terminal(C20 diacid-gGlu), des1, 2L, 4G, 9V, 21S, 23Y, 30S, 31G, 32T, 33Y]mimylin] | 11.8 |
| EASELSTAALGRLSAELHELATLPRTETGPESP-OH [[C-terminal(-)]mimylin] | 294 |
| ASELSTAALGHLSAELHELATLPRTETGSGSP-NH2 [[des1, 12H, 30S, 31G]mimylin] | 5.1 |
| {C20 diacid-γGlu}-ELSGLSTLVLGRLSQELHELQTYPRTGTGSGTY-NH2 (SMILES CC(C)C[C@H](NC(=O)CNC(=O)[C@H](CO)NC(=O)[C@H](CC(C)C)NC(=O)[C@H](CCC(=O)O)NC(=O)CC[C@H](NC(=O)CCCCCCCCCCCCCCCCCCC(=O)O)C(=O)O)C(=O)N[C@@H](CO)C(=O)N[C@H](C(=O)N[C@@H](CC(C)C)C(=O)N[C@H](C(=O)N[C@@H](CC(C)C)C(=O)NCC(=O)N[C@@H](CCCNC(=N)N)C(=O)N[C@@H](CC(C)C)C(=O)N[C@@H](CO)C(=O)N[C@@H](CCC(N)=O)C(=O)N[C@@H](CCC(=O)O)C(=O)N[C@@H](CC(C)C)C(=O)N[C@@H](Cc1c[nH]cn1)C(=O)N[C@@H](CCC(=O)O)C(=O)N[C@@H](CC(C)C)C(=O)N[C@@H](CCC(N)=O)C(=O)N[C@H](C(=O)N[C@@H](Cc1ccc(O)cc1)C(=O)N1CCC[C@H]1C(=O)N[C@@H](CCCNC(=N)N)C(=O)N[C@H](C(=O)NCC(=O)N[C@H](C(=O)NCC(=O)N[C@@H](CO)C(=O)NCC(=O)N[C@H](C(=O)N[C@@H](Cc1ccc(O)cc1)C(N)=O)[C@@H](C)O)[C@@H](C)O)[C@@H](C)O)[C@@H](C)O)C(C)C)[C@@H](C)O) [[N-terminal(C20 diacid-gGlu), 2L, 4G, 8L, 9V, 15Q, 21Q, 23Y, 27G, 30S, 31G, 32T, 33Y]mimylin] | 2.56 |

More lines, now with the values ahead:

| IC50 [nM] | Binder |
| --- | --- |
| 1.18 | LSGLSTAVLGRLSQELHELQTYPRTETGSQTY-NH2 [[des1, 2L, 4G, 9V, 15Q, 21Q, 23Y, 30S, 31Q, 32T, 33Y]mimylin] |
| 0.982 | ASEVSTAVLGRLSAELHELATLPRTETGSGSP-NH2 [[des1, 5V, 9V, 30S, 31G]mimylin] |
| 0.338 | {C20 diacid-γGlu}-EASQLSTAVLGRLSQELHELQTYPRTGTGSGTY-NH2 (SMILES CC(C)C[C@H](NC(=O)[C@H](CCCNC(=N)N)NC(=O)CNC(=O)[C@H](CC(C)C)NC(=O)[C@@H](NC(=O)[C@H](C)NC(=O)[C@@H](NC(=O)[C@H](CO)NC(=O)[C@H](CC(C)C)NC(=O)[C@H](CCC(N)=O)NC(=O)[C@H](CO)NC(=O)[C@H](C)NC(=O)[C@H](CCC(=O)O)NC(=O)CC[C@H](NC(=O)CCCCCCCCCCCCCCCCCCC(=O)O)C(=O)O)[C@@H](C)O)C(C)C)C(=O)N[C@@H](CO)C(=O)N[C@@H](CCC(N)=O)C(=O)N[C@@H](CCC(=O)O)C(=O)N[C@@H](CC(C)C)C(=O)N[C@@H](Cc1c[nH]cn1)C(=O)N[C@@H](CCC(=O)O)C(=O)N[C@@H](CC(C)C)C(=O)N[C@@H](CCC(N)=O)C(=O)N[C@H](C(=O)N[C@@H](Cc1ccc(O)cc1)C(=O)N1CCC[C@H]1C(=O)N[C@@H](CCCNC(=N)N)C(=O)N[C@H](C(=O)NCC(=O)N[C@H](C(=O)NCC(=O)N[C@@H](CO)C(=O)NCC(=O)N[C@H](C(=O)N[C@@H](Cc1ccc(O)cc1)C(N)=O)[C@@H](C)O)[C@@H](C)O)[C@@H](C)O)[C@@H](C)O) [[N-terminal(C20 diacid-gGlu), 4Q, 9V, 15Q, 21Q, 23Y, 27G, 30S, 31G, 32T, 33Y]mimylin] |
| 0.079 | {C20 diacid-γGlu}-ASGLSTATLGRLSQELHELQTYPRTETGSGTY-NH2 [[N-terminal(C20 diacid-gGlu), des1, 4G, 9T, 15Q, 21Q, 23Y, 30S, 31G, 32T, 33Y]mimylin] |
| 0.244 | {C20 diacid-γGlu}-ASGLSTAVLGRLSQELHELQTYPRTETGSATY-NH2 (SMILES CC(C)C[C@H](NC(=O)CNC(=O)[C@H](CO)NC(=O)[C@H](C)NC(=O)CC[C@H](NC(=O)CCCCCCCCCCCCCCCCCCC(=O)O)C(=O)O)C(=O)N[C@@H](CO)C(=O)N[C@H](C(=O)N[C@@H](C)C(=O)N[C@H](C(=O)N[C@@H](CC(C)C)C(=O)NCC(=O)N[C@@H](CCCNC(=N)N)C(=O)N[C@@H](CC(C)C)C(=O)N[C@@H](CO)C(=O)N[C@@H](CCC(N)=O)C(=O)N[C@@H](CCC(=O)O)C(=O)N[C@@H](CC(C)C)C(=O)N[C@@H](Cc1c[nH]cn1)C(=O)N[C@@H](CCC(=O)O)C(=O)N[C@@H](CC(C)C)C(=O)N[C@@H](CCC(N)=O)C(=O)N[C@H](C(=O)N[C@@H](Cc1ccc(O)cc1)C(=O)N1CCC[C@H]1C(=O)N[C@@H](CCCNC(=N)N)C(=O)N[C@H](C(=O)N[C@@H](CCC(=O)O)C(=O)N[C@H](C(=O)NCC(=O)N[C@@H](CO)C(=O)N[C@@H](C)C(=O)N[C@H](C(=O)N[C@@H](Cc1ccc(O)cc1)C(N)=O)[C@@H](C)O)[C@@H](C)O)[C@@H](C)O)[C@@H](C)O)C(C)C)[C@@H](C)O) [[N-terminal(C20 diacid-gGlu), des1, 4G, 9V, 15Q, 21Q, 23Y, 30S, 31A, 32T, 33Y]mimylin] |
| 0.469 | EASELSTAALGRLSAELHELATLPRTETGSGSP-NH2 |
